Measurements as given in PMC3085893 (European journal of cell biology, 2011).
Values belong to the binder of their own block, whether it stands above or below them.

Assays:
GST-Src SH3 domain = GST-Src SH3 domain (UniProt P12931 84-145); experiment: pull-down
GST-cortactin SH3 domain = GST-cortactin SH3 domain (UniProt Q14247 492-550); experiment: pull-down
GST-cortactin SH3 domain, sequence (Q14247 492-550): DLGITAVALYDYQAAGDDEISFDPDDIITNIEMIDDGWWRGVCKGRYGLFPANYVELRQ

- fold increase in the ratio pulled down over GST control (GST-Src SH3 domain): 14 fold
B1: GFP-AFAP1 (Actin Filament-Associated Protein of 110 kDa) (natural protein, UniProt Q8N556 1-730, looked up)
chain: MEELIVELRLFLELLDHEYLTSTVREKKAVITNILLRIQSSKGFDVKDHAQKQETANSLPAPPQMPLPEIPQPWLPPDSGPPPLPTSSLPEGYYEEAVPLSPGKAPEYITSNYDSDAMSSSYESYDEEEEDGKGKKTRHQWPSEEASMDLVKDAKICAFLLRKKRFGQWTKLLCVIKDTKLLCYKSSKDQQPQMELPLQGCNITYIPKDSKKKKHELKITQQGTDPLVLAVQSKEQAEQWLKVIKEAYSGCSGPVDSECPPPPSSPVHKAELEKKLSSERPSSDGEGVVENGITTCNGKEQVKRKKSSKSEAKGTVSKVTGKKITKIISLGKKKPSTDEQTSSAEEDVPTCGYLNVLSNSRWRERWCRVKDNKLIFHKDRTDLKTHIVSIPLRGCEVIPGLDSKHPLTFRLLRNGQEVAVLEASSSEDMGRWIGILLAETGSSTDPEALHYDYIDVEMSASVIQTAKQTFCFMNRRVISANPYLGGTSNGYAHPSGTALHYDDVPCINGSLKGKKPPVASNGVTGKGKTLSSQPKKADPAAVVKRTGSNAAQYKYGKNRVEADAKRLQTKEEELLKRKEALRNRLAQLRKERKDLRAAIEVNAGRKPQAILEEKLKQLEEECRQKEAERVSLELELTEVKESLKKALAGGVTLGLAIEPKSGTSSPQSPVFRHRTLENSPISSCDTSDTEGPVPVNSAAVLKKSQAAPGSSPCRGHVLRKAKEWELKNGT

- fold increase in the ratio pulled down over GST control (GST-cortactin SH3 domain): ~9 fold
B2: GFP-AFAP1L1 (Actin Filament Associated Protein 1 Like 1) (natural protein, human, UniProt Q8TED9 1-768, looked up)
chain: MDRGQVLEQLLPELTGLLSLLDHEYLSDTTLEKKMAVASILQSLQPLPAKEVSYLYVNTADLHSGPSFVESLFEEFDCDLSDLRDMPEDDGEPSKGASPELAKSPRLRNAADLPPPLPNKPPPEDYYEEALPLGPGKSPEYISSHNGCSPSHSIVDGYYEDADSSYPATRVNGELKSSYNDSDAMSSSYESYDEEEEEGKSPQPRHQWPSEEASMHLVRECRICAFLLRKKRFGQWAKQLTVIREDQLLCYKSSKDRQPHLRLALDTCSIIYVPKDSRHKRHELRFTQGATEVLVLALQSREQAEEWLKVIREVSKPVGGAEGVEVPRSPVLLCKLDLDKRLSQEKQTSDSDSVGVGDNCSTLGRRETCDHGKGKKSSLAELKGSMSRAAGRKITRIIGFSKKKTLADDLQTSSTEEEVPCCGYLNVLVNQGWKERWCRLKCNTLYFHKDHMDLRTHVNAIALQGCEVAPGFGPRHPFAFRILRNRQEVAILEASCSEDMGRWLGLLLVEMGSRVTPEALHYDYVDVETLTSIVSAGRNSFLYARSCQNQWPEPRVYDDVPYEKMQDEEPERPTGAQVKRHASSCSEKSHRVDPQVKVKRHASSANQYKYGKNRAEEDARRYLVEKEKLEKEKETIRTELIALRQEKRELKEAIRSSPGAKLKALEEAVATLEAQCRAKEERRIDLELKLVAVKERLQQSLAGGPALGLSVSSKPKSGETANKPQNSVPEQPLPVNCVSELRKRSPSIVASNQGRVLQKAKEWEMKKT
